The source of these data is article PMC3294036.

Test in all cases: FRET or BRET
For assay [1], the target named is AKAP79-CFP I338P variant (PPAIIIT), full-length (human) (UniProt P24588).
In assay [2] the target is ATTO425-AKAP79(333–408), wildtype (PIAIIIT) (human) (UniProt P24588).
Assay [3] concerns the target ATTO425-AKAP79(333–408) I338P variant (PPAIIIT) (human) (UniProt P24588).
Assay [4] has as its target AKAP79-CFP, wildtype, full-length (human) (UniProt P24588).

“And” between values parts separate entries of the source, which are not always exact repeats. Identical values can stand only once.

ATTO425-AKAP79(333–408), wildtype (PIAIIIT) (human), sequence (P24588 333-408): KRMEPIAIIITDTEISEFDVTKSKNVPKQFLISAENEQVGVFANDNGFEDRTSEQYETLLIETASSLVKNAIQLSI
AKAP79-CFP I338P variant (PPAIIIT), full-length (human), sequence (P24588 whole entry I338P): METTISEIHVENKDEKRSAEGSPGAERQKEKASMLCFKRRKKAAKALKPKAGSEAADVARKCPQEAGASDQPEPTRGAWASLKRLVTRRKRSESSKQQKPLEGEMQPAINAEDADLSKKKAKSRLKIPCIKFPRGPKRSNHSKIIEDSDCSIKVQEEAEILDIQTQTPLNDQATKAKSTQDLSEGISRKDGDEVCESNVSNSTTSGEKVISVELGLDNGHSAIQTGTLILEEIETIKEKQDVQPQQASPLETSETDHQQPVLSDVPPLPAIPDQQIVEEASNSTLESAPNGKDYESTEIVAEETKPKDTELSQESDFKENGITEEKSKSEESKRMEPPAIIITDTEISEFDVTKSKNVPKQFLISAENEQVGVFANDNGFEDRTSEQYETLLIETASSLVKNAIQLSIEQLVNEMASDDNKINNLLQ
AKAP79-CFP, wildtype, full-length (human), sequence (P24588 whole entry): as the sequence (P24588 whole entry I338P) above, with P338I counted along it
ATTO425-AKAP79(333–408) I338P variant (PPAIIIT) (human), sequence (P24588 333-408 I338P): as the sequence (P24588 333-408) above, with I6P counted along it

Consider “CNAα-YFP (from UniProt Q08209 1-521) (enzyme)”, for which, in assay [1], the corrected YFP/CFP fluorescence intensity ratio (treated as 1:1 complex) was 8.1 and the corrected YFP/CFP fluorescence intensity ratio (treated as 2:1 complex) turned out to be 7.1.
With “rhodamine-CN (calcineurin labelled with tetramethylrhodamine acceptor) (from UniProt Q08209;P63098) (complex)”, in assay [2], the Kd was 400 nM and 300 nM; the koff worked out at 9.96 s⁻¹. In assay [3], this substance returned a half-time of dissociation of 163 ms.
Turning to “CNAα-YFP (from UniProt Q08209 1-521) (enzyme; other documents disagree on this pair)”, in assay [4], the corrected YFP/CFP fluorescence intensity ratio (treated as 2:1 complex) was determined as 6.1 and the stoichiometry N was found to be 1.

One may read the Kd as the free concentration of one partner at which half of the binding sites on the other are occupied at equilibrium, for simple one-to-one binding. As a reminder, the koff is the first-order rate constant of dissociation. Usually stoichiometry N stands for a count of units in the complex or per binding partner.
